Source: the supplement of paper PMC9170038

Test system: MS2 coat protein
Assay: apparent KD of MS2 coat protein; designed switch direction (-1 OFF switch, 1 ON switch): 1; higher = weaker reporter binding
Outline: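 Designed RNA switches with common flanks were made on Illumina chips by stalled E. coli RNA polymerase. Titration with SNAP-549-labelled MS2 coat protein doubled from 0.7 or 1.5 nM up to 3 µM. Apparent KD is each design's median over clusters after curve-fitting normalised fluorescence.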

[1] = input ligand: microRNA oligo, concentration not stated
[2] = Eterna round: R95, input ligand: FMN 200 uM
[3] = Eterna round: R95, input ligand: microRNA oligo, concentration not stated
[4] = Eterna round: R95, input ligand: none

Sequence | apparent KD of MS2 coat protein (input ligand: FMN 200 uM) | apparent KD of MS2 coat protein [1] | apparent KD of MS2 coat protein (input ligand: none) | apparent KD of MS2 coat protein [2] | apparent KD of MS2 coat protein [3] | apparent KD of MS2 coat protein [4]
GUUACAUGAGGAUCACCCAUGUAUGUGUGGGAGUAAGUGUCUUAGGAUAUCUAUCAAUUAAUUUAAGAGAAGGAAGAUUGUUGU [JMF's solution 89] (Eterna round: R96, puzzle: Same State NG 3) | 116 nM | 94 nM | 110 nM |  |  | 
GUUACAUGAGGAUCACCCAUGUAUGUGUGGGAGUAAGUGUCUUAGGAUAUCUAUCAUUUAAAUUAAGAGAAGGAAGAUUGUUGU [JMF's solution 12] (Eterna round: R96, puzzle: Same State NG 3) | 126 nM | 73.5 nM | 118 nM |  |  | 
GUUACAUGAGGAUCACCCAUGUAUGUGUGGGAGUAAGUGUCUUAGGAUAUCUAUGAUUUAAUUCAAGAGAAGGAAGAUUGUUGU [JMF's solution 85] (Eterna round: R96, puzzle: Same State NG 3) | 115 nM | 70.7 nM | 79.5 nM |  |  | 
GUUACAUGAGGAUCACCCAUGUAUGUGUGGGAGUAAGUGUCUUAGGAUAUCUGUUAUUGAAUUUAAGAGAAGGAAGAUUGUUGU [JMF's solution 37] (Eterna round: R96, puzzle: Same State NG 3) | 102 nM | 59.5 nM | 100 nM |  |  | 
GUUAGGAAUCUAGCAAACAUGAGGAUCACCCAUGUUAGUGGGAAGGAUAUGGUACAGAAACUGUACCAGAAGGUCUUAUUGAUU [Omei SS(NG) 3 AV4] (Eterna round: R96, puzzle: Same State NG 3) | 40.2 nM | 33 nM | 59 nM |  |  | 
GUUAGGAAUCUAGCAUACAUGAGGAUCACCCAUGUAAGUGGGAAGGAUAUGGUACAGAAACUGUACCAGAAGGUCUUAUUGAUU [Omei SS(NG) 3 AV6] (Eterna round: R96, puzzle: Same State NG 3) | 45.1 nM | 40.8 nM | 80.1 nM |  |  | 
GUUAUACAUGAGGAUCACCCAUGUCAAUGUAGUCGAGGAUAUGGGUAGCCAUGAGGCGUACUAGAAGGCGAGGAGU [JL-ss1-3.19 ViennaUCT mod] (puzzle: Same State 1) |  |  |  | 130 nM | 68.8 nM | 81.5 nM
GUUCGUUUGAUAGGAUAUCGCUAUACAUGAGGAUCACCCAUGUUUACCACGCUGGUUUUUCGUACCGAGAAGGAUUCUGAUGAU [JL JR sub007 mod 2] (Eterna round: R96, puzzle: Same State NG 2) |  | 30.5 nM |  |  |  | 
UAAAGAAAGCGAGGAUAUAGCCCAUGUGAAGAACUAGAAGGCGCAGACAUGAGGAUCACCCAUGUGUUCAUGAGGAGGAGGACA [Kawasakiqro] (Eterna round: R96, puzzle: Same State NG 1) | 88.6 nM | 51.9 nM | 57.7 nM |  |  | 
UAAAGCGACGUAGGAUAUCCUCUACAUGCGUAAGGAGAAGGAUGCGCAACAUGAGGAUCACCCAUGUAAAACCAGCACUGCUGG [Isaerte] (Eterna round: R96, puzzle: Same State NG 1) | 71.9 nM | 22.5 nM | 36.7 nM |  |  | 
UAAAUAAAGUAAGGAUAUACAUGAGGAUUUCUCGUAGAAGGUACAAGACAUGAGGAUCACCCAUGUAUCGCUCCGUAGAGCGUA [Mat - Same State NG 1 - JL mod - D21] (Eterna round: R96, puzzle: Same State NG 1) |  | 57.7 nM |  |  |  | 
UAAGAACAUGAGGAUCACCCAUGUGGAAAGAACACAGGAUAUCAUAGUAGAACGAGACUAUGAGAAGGGUGACACG [Texeistean] (puzzle: Same State 1) |  |  |  | 595 nM | 214 nM | 666 nM
UAAUUAAAGCAAGGAUAUCACGUCGUUUAGACGUGAGAAGGUGCUCCUUACAUGAGGAUCACCCAUGUAUAACAUGAAUAAUUA [SSNG1/10-B3] (Eterna round: R96, puzzle: Same State NG 1) | 170 nM | 517 nM | 656 nM |  |  | 
UAAUUAAGUCAAGGAUAUCACGUCGAUUAGACGUGAGAAGGUGACCAAUACAUGAGGAUCACCCAUGUAAUACAUGAAUAAUUA [SSNG1/12-B2] (Eterna round: R96, puzzle: Same State NG 1) | 22.7 nM | 53.2 nM | 56.4 nM |  |  | 
